Data: US20250388666A1 (BRIGHAM AND WOMEN S HOSPITAL, published 2025)

T1: CEACAM1 (Sino Biological) (human, UniProt P13688 35-428, limits assumed)
T1 construct: may be the same as CEACAM1-HIS; also called hCEACAM1; biotinylated soluble CEACAM1
T1 sequence: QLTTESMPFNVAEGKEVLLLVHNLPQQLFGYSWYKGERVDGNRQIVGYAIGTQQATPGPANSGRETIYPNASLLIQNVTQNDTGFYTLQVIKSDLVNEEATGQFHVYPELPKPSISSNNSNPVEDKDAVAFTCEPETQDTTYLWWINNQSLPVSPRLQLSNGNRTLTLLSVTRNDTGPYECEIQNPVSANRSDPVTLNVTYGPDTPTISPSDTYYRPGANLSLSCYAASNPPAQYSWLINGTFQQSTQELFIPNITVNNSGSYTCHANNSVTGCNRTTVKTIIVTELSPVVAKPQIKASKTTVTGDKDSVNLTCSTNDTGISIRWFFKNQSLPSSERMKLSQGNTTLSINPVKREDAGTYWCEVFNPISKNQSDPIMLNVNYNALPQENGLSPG


Molecular target: T1, CEACAM1 (Sino Biological)
Assay: SPR single-cycle
Experimental: To assess the binding of the humanized affinity matured IgGs, single cycle kinetics analysis was performed on crude supernatants using a Biacore T200 running Biacore T200 Control Software V2.0.1 and Biacore T200 Evaluation Software V3.0 (Uppsala, Sweden). Antibodies were diluted in HBS-P+ (GE Healthcare) to a final concentration of […]. At the start of each cycle, antibodies were loaded onto Fc2, Fc3 and Fc4 of the Protein A chip (GE Healthcare). IgGs were captured at a flow rate of 10 μl/min to give an immobilization level (RL) of ˜100 RU (a level calculated to obtain an Rmax of ˜50-150 RU once the analyte is bound). The surface was then allowed to stabilize. Single cycle kinetics data was obtained with CEACAM1 as the analyte at a flow rate of […] to minimize any potential mass transfer effects. Multiple repeats with the parent (VH2 N56Q/Vκ4 S27(f)A) antibody were performed to check the stability of the surface and analyte over the kinetic cycles. The signal from the reference channel Fc1 (no antibody) was subtracted from that of Fc2, Fc3 and Fc4 to correct for differences in non-specific binding to the reference surface. A three point, two-fold dilution range from 25 nM to 100 nM CEACAM 1 without regeneration between each concentration was used. The signal from each antibody blank run (no CEACAM1) was subtracted to correct for differences in surface stability. The association phase for the three injections of increasing concentrations of CEACAM1 was monitored for 200 seconds each time and a single dissociation phase was measured for 300 seconds following the last injection of CEACAM1. Regeneration of the Protein A surface was conducted using two injections of 10 mM glycine-HCL pH 1.5 followed by a stabilization period of 240 seconds.

Binder	Kd [nM]	fold better than Parent (KD) [fold]
He3/L4 #1 (antibody, IgG4, V domains shown, IgG4 S241P, kappa) VH: EVQLLESGGGLVQPGGSLRLSCAASGFSFSDYYLYWVRQAPGKGLEWVATISVGGGQTSYADSVKGRFTISRDNSKNTLYLQMNSLRAEDTAMYYCTRALTYGPAWLAYWGQGTLVTVSS VL: DIVMTQSPDSLAVSLGERATINCKSSQSLLNSANQKNYLAWYQQKPGQPPKLLIYFASTRESGVPDRFSGSGSGTDFTLTISSLQAEDVAVYYCQSHFPYYYTFGGGTKVEIK	99	1.61
He3/L4#2 (antibody, IgG4, V domains shown, IgG4 S241P, kappa) VH: EVQLLESGGGLVQPGGSLRLSCAASGFSFSDYYLYWVRQAPGKGLEWVATISVGGGQTSYADSVKGRFTISRDNSKNTLYLQMNSLRAEDTAMYYCTRALTYGPAWLAYWGQGTLVTVSS VL: DIVMTQSPDSLAVSLGERATINCKSSQSLLNSANQKNYLAWYQQKPGQPPKLLIYFASTRESGVPDRFSGSGSGTDFTLTISSLQAEDVAVYYCQSHYPYPYTFGGGTKVEIK	130	4.24
He3/L5 (antibody, IgG4, V domains shown, IgG4 S241P, kappa) VH: EVQLLESGGGLVQPGGSLRLSCAASGFSFSDYYLYWVRQAPGKGLEWVATISVGGGQTSYADSVKGRFTISRDNSKNTLYLQMNSLRAEDTAMYYCTRALTYGPAWLAYWGQGTLVTVSS VL: DIVMTQSPDSLAVSLGERATINCKSSQSLLNSANQKNYLAWYQQKPGQPPKLLIYFASTRESGVPDRFSGSGSGTDFTLTISSLQAEDVAVYYCQSHYPFAFTFGGGTKVEIK	95	1.68
He3/L6 (antibody, IgG4, V domains shown, IgG4 S241P, kappa) VH: EVQLLESGGGLVQPGGSLRLSCAASGFSFSDYYLYWVRQAPGKGLEWVATISVGGGQTSYADSVKGRFTISRDNSKNTLYLQMNSLRAEDTAMYYCTRALTYGPAWLAYWGQGTLVTVSS VL: DIVMTQSPDSLAVSLGERATINCKSSQSLLNSANQKNYLAWYQQKPGQPPKLLIYFASTRESGVPDRFSGSGSGTDFTLTISSLQAEDVAVYYCQSHYPFSFTFGGGTKVEIK	93	1.72
He3/L16 (antibody, IgG4, V domains shown, IgG4 S241P, kappa) VH: EVQLLESGGGLVQPGGSLRLSCAASGFSFSDYYLYWVRQAPGKGLEWVATISVGGGQTSYADSVKGRFTISRDNSKNTLYLQMNSLRAEDTAMYYCTRALTYGPAWLAYWGQGTLVTVSS VL: DIVMTQSPDSLAVSLGERATINCKSSQSLLNSANQKNYLAWYQQKPGQPPKLLIYFASTRESGVPDRFSGSGSGTDFTLTISSLQAEDVAVYYCQSHYPYPFTFGGGTKVEIK	72	2.22
He3/L17 (antibody, IgG4, V domains shown, IgG4 S241P, kappa) VH: EVQLLESGGGLVQPGGSLRLSCAASGFSFSDYYLYWVRQAPGKGLEWVATISVGGGQTSYADSVKGRFTISRDNSKNTLYLQMNSLRAEDTAMYYCTRALTYGPAWLAYWGQGTLVTVSS VL: DIVMTQSPDSLAVSLGERATINCKSSQSLLNSANQKNYLAWYQQKPGQPPKLLIYFASTRESGVPDRFSGSGSGTDFTLTISSLQAEDVAVYYCQSHYPYPYTFGGGTKVEIK	83	1.91
He3/L18 (antibody, IgG4, V domains shown, IgG4 S241P, kappa) VH: EVQLLESGGGLVQPGGSLRLSCAASGFSFSDYYLYWVRQAPGKGLEWVATISVGGGQTSYADSVKGRFTISRDNSKNTLYLQMNSLRAEDTAMYYCTRALTYGPAWLAYWGQGTLVTVSS VL: DIVMTQSPDSLAVSLGERATINCKSSQSLLNSANQKNYLAWYQQKPGQPPKLLIYFASTRESGVPDRFSGSGSGTDFTLTISSLQAEDVAVYYCQSHFPYPFTFGGGTKVEIK	82	1.94
He3/L19 (antibody, IgG4, V domains shown, IgG4 S241P, kappa) VH: EVQLLESGGGLVQPGGSLRLSCAASGFSFSDYYLYWVRQAPGKGLEWVATISVGGGQTSYADSVKGRFTISRDNSKNTLYLQMNSLRAEDTAMYYCTRALTYGPAWLAYWGQGTLVTVSS VL: DIVMTQSPDSLAVSLGERATINCKSSQSLLNSANQKNYLAWYQQKPGQPPKLLIYFASTRESGVPDRFSGSGSGTDFTLTISSLQAEDVAVYYCQSHIYPNFTFGGGTKVEIK	135	1.18
He3/Parent VL (antibody, IgG4, V domains shown, IgG4 S241P, kappa) VH: EVQLLESGGGLVQPGGSLRLSCAASGFSFSDYYLYWVRQAPGKGLEWVATISVGGGQTSYADSVKGRFTISRDNSKNTLYLQMNSLRAEDTAMYYCTRALTYGPAWLAYWGQGTLVTVSS VL: not shown	78	2.03
He4/L1 (antibody, IgG4, V domains shown, IgG4 S241P, kappa) VH: EVQLLESGGGLVQPGGSLRLSCAASGFSFSDYYLYWVRQAPGKGLEWVATISVGGGQTSYADSVKGRFTISRDNSKNTLYLQMNSLRAEDTAMYYCTRALYYGPAWFAYWGQGTLVTVSS VL: DIVMTQSPDSLAVSLGERATINCKSSQSLLNSANQKNYLAWYQQKPGQPPKLLIYFASTRESGVPDRFSGSGSGTDFTLTISSLQAEDVAVYYCQSHYPFYYTFGGGTKVEIK	64	2.49
He4/L2 (antibody, IgG4, V domains shown, IgG4 S241P, kappa) VH: EVQLLESGGGLVQPGGSLRLSCAASGFSFSDYYLYWVRQAPGKGLEWVATISVGGGQTSYADSVKGRFTISRDNSKNTLYLQMNSLRAEDTAMYYCTRALYYGPAWFAYWGQGTLVTVSS VL: DIVMTQSPDSLAVSLGERATINCKSSQSLLNSANQKNYLAWYQQKPGQPPKLLIYFASTRESGVPDRFSGSGSGTDFTLTISSLQAEDVAVYYCQSHYPFPYTFGGGTKVEIK	76	2.09
He4/L3 (antibody, IgG4, V domains shown, IgG4 S241P, kappa) VH: EVQLLESGGGLVQPGGSLRLSCAASGFSFSDYYLYWVRQAPGKGLEWVATISVGGGQTSYADSVKGRFTISRDNSKNTLYLQMNSLRAEDTAMYYCTRALYYGPAWFAYWGQGTLVTVSS VL: DIVMTQSPDSLAVSLGERATINCKSSQSLLNSANQKNYLAWYQQKPGQPPKLLIYFASTRESGVPDRFSGSGSGTDFTLTISSLQAEDVAVYYCQSHFPFPFTFGGGTKVEIK	55	2.87
He4/L4 #1 (antibody, IgG4, V domains shown, IgG4 S241P, kappa) VH: EVQLLESGGGLVQPGGSLRLSCAASGFSFSDYYLYWVRQAPGKGLEWVATISVGGGQTSYADSVKGRFTISRDNSKNTLYLQMNSLRAEDTAMYYCTRALYYGPAWFAYWGQGTLVTVSS VL: DIVMTQSPDSLAVSLGERATINCKSSQSLLNSANQKNYLAWYQQKPGQPPKLLIYFASTRESGVPDRFSGSGSGTDFTLTISSLQAEDVAVYYCQSHFPYYYTFGGGTKVEIK	83	1.91
He4/L4#2 (antibody, IgG4, V domains shown, IgG4 S241P, kappa) VH: EVQLLESGGGLVQPGGSLRLSCAASGFSFSDYYLYWVRQAPGKGLEWVATISVGGGQTSYADSVKGRFTISRDNSKNTLYLQMNSLRAEDTAMYYCTRALYYGPAWFAYWGQGTLVTVSS VL: DIVMTQSPDSLAVSLGERATINCKSSQSLLNSANQKNYLAWYQQKPGQPPKLLIYFASTRESGVPDRFSGSGSGTDFTLTISSLQAEDVAVYYCQSHYPYPYTFGGGTKVEIK	127	4.34
He4/L5 (antibody, IgG4, V domains shown, IgG4 S241P, kappa) VH: EVQLLESGGGLVQPGGSLRLSCAASGFSFSDYYLYWVRQAPGKGLEWVATISVGGGQTSYADSVKGRFTISRDNSKNTLYLQMNSLRAEDTAMYYCTRALYYGPAWFAYWGQGTLVTVSS VL: DIVMTQSPDSLAVSLGERATINCKSSQSLLNSANQKNYLAWYQQKPGQPPKLLIYFASTRESGVPDRFSGSGSGTDFTLTISSLQAEDVAVYYCQSHYPFAFTFGGGTKVEIK	68	2.36
He4/L6 (antibody, IgG4, V domains shown, IgG4 S241P, kappa) VH: EVQLLESGGGLVQPGGSLRLSCAASGFSFSDYYLYWVRQAPGKGLEWVATISVGGGQTSYADSVKGRFTISRDNSKNTLYLQMNSLRAEDTAMYYCTRALYYGPAWFAYWGQGTLVTVSS VL: DIVMTQSPDSLAVSLGERATINCKSSQSLLNSANQKNYLAWYQQKPGQPPKLLIYFASTRESGVPDRFSGSGSGTDFTLTISSLQAEDVAVYYCQSHYPFSFTFGGGTKVEIK	72	2.22
He4/L17 (antibody, IgG4, V domains shown, IgG4 S241P, kappa) VH: EVQLLESGGGLVQPGGSLRLSCAASGFSFSDYYLYWVRQAPGKGLEWVATISVGGGQTSYADSVKGRFTISRDNSKNTLYLQMNSLRAEDTAMYYCTRALYYGPAWFAYWGQGTLVTVSS VL: DIVMTQSPDSLAVSLGERATINCKSSQSLLNSANQKNYLAWYQQKPGQPPKLLIYFASTRESGVPDRFSGSGSGTDFTLTISSLQAEDVAVYYCQSHYPYPYTFGGGTKVEIK	62	2.55
